Reference: patent publication US20240238263A1, “USE OF PYRIDONE DERIVATIVE CONTAINING HETEROATOM CYCLOBUTANE SUBSTITUENT” (GUANGZHOU JOYO PHARMATECH CO., LTD, priority 2021, published 2024)

Test system: dorsal skin full-thickness excisional wound in STZ-induced diabetic rats
Assay: Dorsal skin full-thickness excisional wound model in STZ-induced diabetic rats, wound closure
Format: in vivo, Wistar rats
Conditions: for Remaining open wound area: GeneTime 0.04 mL topical twice daily
Experimental: In this study, 50 STZ-diabetic rats were used to simulate Type 1 diabetes, with an additional 8 normal rats serving as the control group (normal blank gel control group (without STZ)). The method for modeling the STZ-diabetic rat is as follows: Male Wistar rats were weighed and then intraperitoneally injected with Streptozotocin (STZ, freshly prepared, dissolved in 0.1 M citrate buffer (pH 4.5)) at a dosage of 80 mg/kg. STZ was intraperitoneally injected twice in total, with a 5-day interval between injections. Three days after the second STZ injection, rats with fasting blood glucose levels greater than 250 mg/dl were defined as diabetic model rats. Studies on skin wound healing could be conducted from 1 to 8 weeks after the successful establishment of the diabetic rat model. • 2.
In diabetic model rats, the dorsal skin was marked with a stamp, and full-thickness excision was performed to create a standardized wound area. The day of the full-thickness skin excision surgery was designated as Day 1 of the experiment. The specified surgical procedure was as follows: • 1) Prior to surgery, animals were anesthetized with 2-5% isoflurane. The back was shaved and prepared, and the surgical area was disinfected with iodophor, followed by de-iodination with 75% alcohol. • 2) All animals were marked on the skin of their backs using a stamp with a circular pattern. A circular full-thickness skin excision was performed along the midline of the rat's back, extending down to the fascial layer. […] The surgical site was essentially consistent for each animal; • 3) Post-surgery, every 8-12 hours, 8 mg/kg of bupivacaine (diluted to 0.25% with physiological saline) was injected subcutaneously at the wound site. All animals were closely monitored until they regained consciousness. Animals were monitored daily, and if symptoms of pain persisted, they would continue to receive pain medication. • 4. Drug administration:
All experimental groups were topically administered. Before administering the medication, wounds were rinsed with physiological saline and any residual moisture was absorbed with a sterile cotton swab. Then, the medication was applied. For the GeneTime group, the solution was evenly applied to the wound and surrounding skin, with the dressing changed twice a day. For the other groups, the gel samples were applied from the periphery toward the center, focusing first on the edges of the lesion before covering inward, with the dressing changed twice a day. Medication was applied immediately after the wound model was created, and each group was continuously administered for 18 days. For specific administration information, see Table 2. • 5. Efficacy assessment • 1) Blood glucose monitoring: Blood samples were obtained from all animals via tail vein sampling, and fasting blood glucose levels were measured on days 0/9/18 using a glucometer. • 2) Evaluation of wound closure:
After anesthetizing the rats with isoflurane, a ruler was placed near the wound as a reference scale. Using a digital camera, photos of the wound on the rat's back were taken on days 1, 4, 8, 11, 14, and 18, maintaining a constant focus and pixel condition. The obtained images were processed by software to measure the wound area. • 6. Statistical analysis
Experimental data were expressed as the mean±standard error of the mean (mean±S.E.M.). Statistical analyses were conducted using appropriate methods in software such as Graphpad Prism or SPSS. A p-value of less than 0.05 is considered to indicate a significant difference. • 7. Results • 1) Fasting blood glucose
Remaining Open Wound Area %=Open Wound Area (O)/Initial Wound Area (I)*100%

B1: GeneTime: Recombinant Human Epidermal Growth Factor External Solution, 2000 IU/mL; positive control (protein, UniProt P01133 23-1207, looked up)
Pro-epidermal growth factor: PQHWSCPEGTLAGNGNSTCVGPAPFLIFSHGNSIFRIDTEGTNYEQLVVDAGVSVIMDFHYNEKRIYWVDLERQLLQRVFLNGSRQERVCNIEKNVSGMAINWINEEVIWSNQQEGIITVTDMKGNNSHILLSALKYPANVAVDPVERFIFWSSEVAGSLYRADLDGVGVKALLETSEKITAVSLDVLDKRLFWIQYNREGSNSLICSCDYDGGSVHISKHPTQHNLFAMSLFGDRIFYSTWKMKTIWIANKHTGKDMVRINLHSSFVPLGELKVVHPLAQPKAEDDTWEPEQKLCKLRKGNCSSTVCGQDLQSHLCMCAEGYALSRDRKYCEDVNECAFWNHGCTLGCKNTPGSYYCTCPVGFVLLPDGKRCHQLVSCPRNVSECSHDCVLTSEGPLCFCPEGSVLERDGKTCSGCSSPDNGGCSQLCVPLSPVSWECDCFPGYDLQLDEKSCAASGPQPFLLFANSQDIRHMHFDGTDYGTLLSQQMGMVYALDHDPVENKIYFAHTALKWIERANMDGSQRERLIEEGVDVPEGLAVDWIGRRFYWTDRGKSLIGRSDLNGKRSKIITKENISQPRGIAVHPMAKRLFWTDTGINPRIESSSLQGLGRLVIASSDLIWPSGITIDFLTDKLYWCDAKQSVIEMANLDGSKRRRLTQNDVGHPFAVAVFEDYVWFSDWAMPSVMRVNKRTGKDRVRLQGSMLKPSSLVVVHPLAKPGADPCLYQNGGCEHICKKRLGTAWCSCREGFMKASDGKTCLALDGHQLLAGGEVDLKNQVTPLDILSKTRVSEDNITESQHMLVAEIMVSDQDDCAPVGCSMYARCISEGEDATCQCLKGFAGDGKLCSDIDECEMGVPVCPPASSKCINTEGGYVCRCSEGYQGDGIHCLDIDECQLGEHSCGENASCTNTEGGYTCMCAGRLSEPGLICPDSTPPPHLREDDHHYSVRNSDSECPLSHDGYCLHDGVCMYIEALDKYACNCVVGYIGERCQYRDLKWWELRHAGHGQQQKVIVVAVCVVVLVMLLLLSLWGAHYYRTQKLLSKNPKNPYEESSRDVRSRRPADTEDGMSSCPQPWFVVIKEHQDLKNGGQPVAGEDGQAADGSMQPTSWRQEPQLCGMGTEQGCWIPVSSDKGSCPQVMERSFHMPSYGTQTLEGGVEKPHSLLSANPLWQQRALDPPHQMELTQ
modifications: Pro-epidermal growth factor
notes: Recombinant Human Epidermal Growth Factor External Solution, 2000 IU/mL; positive control
Day 1 (day of surgery)
  Remaining open wound area: 100% ±
Day 4
  Remaining open wound area: 91.82% ±
Day 8
  Remaining open wound area: 52.36% ±
Day 14
  Remaining open wound area: 8.17% ±
Day 18
  Remaining open wound area: 1.79% ±
GeneTime, day 11 after administration, P<0.05
  Change of remaining open wound area % vs model blank gel control group: significantly reduced
